Source: article PMC3642079

B1: unnamed (parent)
chain 1: MNLEGGGRGGEFGMSAVSCGNGKLRQWLIDQIDSGKYPGLVWENEEKSIFRIPWKHAGKQDYNREEDAALFKAWALFKGKFREGIDKPDPPTWKTRLRCALNKSNDFEELVERSQLDISDPYKVYRIVPEGAKKGAKQLTLEDPQMSMSHPYTMTTPYPSLPAQQVHNYMMPPLDRSWRDYVPDQPHPEIPYQCPMTFGPRGHHWQGPACENGCQVTGTFYACAPPESQAPGVPTEPSIRSAEALAFSDCRLHICLYYREILVKELTTSSPEGCRISHGHTYDASNLDQVLFPYPEDNGQRKNIEKLLSHLERGVVLWMAPDGLYAKRLCQSRIYWDGPLALCNDRPNKLERDQTCKLFDTQQFLSELQAFAHHGRSLPRFQVTLCFGEEFPDPQRQRKLITAHVEPLLARQLYYFAQQNSGHFLRGYDLPEHISNPEDYHRSIRHSSIQE
chain 2: LILDSGLDTQHILCFVMAARQRLQDIRRGP
B2: unnamed (parent)
chain 1: MCDRNGGRRLRQWLIEQIDSSMYPGLIWENEEKSMFRIPWKHAGKQDYNQEVDASIFKAWAVFKGKFKEGDKAEPATWKTRLRCALNKSPDFEEVTDRSQLDISEPYKVYRIVPEEEQKCKLGVATAGCVNEVTEMECGRSEIDELIKEPSVDDYMGMIKRSPSPPEACRSQLLPDWWAQQPSTGVPLVTGYTTYDAHHSAFSQMVISFYYGGKLVGQATTTCPEGCRLSLSQPGLPGTKLYGPEGLELVRFPPADAIPSERQRQVTRKLFGHLERGVLLHSSRQGVFVKRLCQGRVFCSGNAVVCKGRPNKLERDEVVQVFDTSQFFRELQQFYNSQGRLPDGRVVLCFGEEFPDMAPLRSKLILVQIEQLYVRQLAEEAGKSCGAGSVMQAPEEPPPDQVFRMFPDICASHQRSFFRENQQITV
chain 2: B1 chain 2

Variants of: B1
Assay: GST pull-down of S35-radiolabeled in vitro translated protein
Details: with partner chain of the complex shown; 5% of IVT input (input lane = 5 RBU); GST control lane = 0.5 RBU; parent: 14.1

Variant | response
chain 2 C14A | 14 RBU
chain 2 F15A | 0.5 RBU
chain 2 R20G R22G | 4.9 RBU

Variants of: B2
Assay: as above
Details: with partner chain of the complex shown; 5% of IVT input (input lane = 5 RBU); GST control lane = 0.4 RBU; parent: 3.9

Variant | response
chain 2 F15A | 0.6 RBU
chain 2 R20G R22G | 0.7 RBU
chain 2 C14A | 3.2 RBU
